43 molecules from patent US7026443 can be followed below.

The chains are these.
B1: HPV18 E6 peptide … (position 27, 10 amino acids) (peptide)
peptide: DIEITCVYCK
modifications: not checked
B2: HPV18 E6 peptide … (position 68, 9 amino acids) (peptide)
peptide: CIDFYSRIR
modifications: not checked
B3: HPV18 E6 peptide … (position 41, 10 amino acids) (peptide)
peptide: LTEVFEFAFK
modifications: not checked
B4: HPV18 E6 peptide … (position 102, 9 amino acids) (peptide)
peptide: LIRCLRCQK
modifications: not checked
B5: HPV18 E6 peptide … (position 83, 10 amino acids) (peptide)
peptide: DSVYGDTLEK
modifications: not checked
B6: HPV18 E6 peptide … (position 101, 10 amino acids) (peptide)
peptide: LLIRCLRCQK
modifications: not checked
B7: HPV18 E6 peptide … (position 84, 9 amino acids) (peptide)
peptide: SVYGDTLEK
modifications: not checked
B8: HPV18 E6 peptide EVFEFAFK (position 43, 8 amino acids) (peptide)
peptide: EVFEFAFK
modifications: not checked
B9: HPV18 E6 peptide … (position 95, 10 amino acids) (peptide)
peptide: NTGLYNLLIR
modifications: not checked
B10: … (HPV31 E1, position 489, 9 amino acids) (peptide)
peptide: WLQPLADAK
modifications: not checked
B11: HPV45 E1 265 … (peptide)
peptide: GVLILALLR
modifications: not checked
B12: HPV45 E1 209 … (peptide)
peptide: GLSFTDLVR
modifications: not checked
B13: HPV18 E6 peptide … (position 59, 9 amino acids) (peptide)
peptide: SIPHAACHK
modifications: not checked
B14: HPV18 E7 peptide TMLCMCCK (position 60, 8 amino acids) (peptide)
peptide: TMLCMCCK
modifications: not checked
B15: … (HPV31 E1, position 285, 9 amino acids) (peptide)
peptide: MLIQPPKLR
modifications: not checked
B16: HPV31 E6 peptide … (position 109, 9 amino acids; Seq. Id. No. 10308) (peptide)
peptide: PLCPEEKQR
modifications: not checked
B17: HPV18 E6 peptide … (position 111, 9 amino acids) (peptide)
peptide: PLNPAEKLR
modifications: not checked
B18: HPV45 E1 379 … (peptide)
peptide: NSNAAAFLK
modifications: not checked
B19: HPV45 E1 267 … (peptide)
peptide: LILALLRYK
modifications: not checked
B20: HPV18 E6 peptide … (position 117, 9 amino acids) (peptide)
peptide: KLRHLNEKR
modifications: not checked
B21: HPV45 E1 215 … (peptide)
peptide: LVRNFKSDK
modifications: not checked
B22: HPV18 E7 peptide … (position 63, 11 amino acids) (peptide)
peptide: CMCCKCEARIK
modifications: not checked
B23: … (HPV16 E7, position 68, 10 amino acids) (peptide)
peptide: CVQSTHVDIR
modifications: not checked
B24: … (HPV16 E1, position 196, 9 amino acids) (peptide)
peptide: NVLKTSNAK
modifications: not checked
B25: HPV16 E1 567 … (peptide)
peptide: NINAGTDSR
modifications: not checked
B26: … (HPV16 E6, position 139, 10 amino acids) (peptide)
peptide: WTGRCMSCCR
modifications: not checked
B27: … (HPV16 E6, position 145, 9 amino acids) (peptide)
peptide: SCCRSSRTR
modifications: not checked
B28: HPV18 E6 131 … (peptide)
peptide: AGHYRGQCH
modifications: not checked
B29: HPV18 E1 position 341 peptide … (peptide)
peptide: GDTPEWIQR
modifications: not checked
B30: … (HPV16 E6, position 140, 9 amino acids) (peptide)
peptide: TGRCMSCCR
modifications: not checked
B31: HPV16 E1 11 … (peptide)
peptide: EGTGCNGWFY
modifications: not checked
B32: HPV16 E1 202 … (peptide)
peptide: NAKAAMLAK
modifications: not checked
B33: … (HPV16 E1, position 484, 9 amino acids) (peptide)
peptide: SLFGMSLMK
modifications: not checked
B34: … (HPV16 E6, position 116, 9 amino acids) (peptide)
peptide: PLCPEEKQR
modifications: not checked
B35: HPV16 E1 112 … (peptide)
peptide: AICIEKQSR
modifications: not checked
B36: … (HPV16 E1, position 109, 9 amino acids) (peptide)
peptide: RLKAICIEK
modifications: not checked
B37: … (HPV16 E1, position 497, 9 amino acids) (peptide)
peptide: SVICFVNSK
modifications: not checked
B38: … (HPV16 E6, position 39, 9 amino acids) (peptide)
peptide: YCKQQLLRR
modifications: not checked
B39: … (HPV16 E7, position 58, 9 amino acids) (peptide)
peptide: CCKCDSTLR
modifications: not checked
B40: … (HPV16 E1, position 72, 9 amino acids) (peptide)
peptide: TAQEAKQHR
modifications: not checked
B41: … (HPV16 E7, position 14, 10 amino acids) (peptide)
peptide: DLQPETTDLY
modifications: not checked
B42: … (HPV16 E7, position 89, 9 amino acids) (peptide)
peptide: IVCPICSQK
modifications: not checked
B43: … (HPV16 E7, position 88, 10 amino acids) (peptide)
peptide: GIVCPICSQK
modifications: not checked

The target in one experiment is HLA-A*0301 (human).
Assay: not given
Details: not given
Turning to B1, the relative binding ratio (IC50 of standard peptide / IC50 of test peptide) (ratio to standard peptide) was found to be 0.0089.
Still for that read-out and setting: the result for B2 reads 0.0001.
Consider B3, for which the relative binding ratio (IC50 of standard peptide / IC50 of test peptide) came out at 0.0001.
On the same count and under the same terms, the result for B4 reads 0.019.
Regarding B5, the relative binding ratio (IC50 of standard peptide / IC50 of test peptide) (ratio to standard peptide) was found to be 0.0005.
With B6, the relative binding ratio (IC50 of standard peptide / IC50 of test peptide) amounted to 0.047.
Same read-out and setting: under B7 stands 0.08.
On to B8, for which the relative binding ratio (IC50 of standard peptide / IC50 of test peptide) (ratio to standard peptide) was found to be 0.0025.
As to B9, the relative binding ratio (IC50 of standard peptide / IC50 of test peptide) turned out to be 0.0002.

A further experiment addresses HLA-A*0301 (human). The experiment is described as follows: competition with 125I-labelled standard peptide for purified HLA, gel filtration.
Details: not given
In general terms: SEC sorts molecules by how far they enter the pores of the column.
As to B10, the binding affinity ratio (IC50 of standard peptide / IC50 of test peptide) (ratio relative to standard peptide) is 0.0005.
Turning to B11, the relative binding ratio (IC50 of standard peptide / IC50 of test peptide) (ratio to standard peptide) is 0.0058.
Still for that read-out and setting: the result for B12 reads 0.0009.
Take B13: the relative binding ratio (IC50 of standard peptide / IC50 of test peptide) turned out to be 0.017.
Same read-out and setting: under B14 stands 0.024.
On to B15, for which the binding affinity ratio (IC50 of standard peptide / IC50 of test peptide) (ratio relative to standard peptide) came out at 0.0005.
For the molecule B16, the relative binding ratio (IC50 of standard peptide / IC50 of test peptide) was 0.0002.
Same read-out and setting: under B1 stands 0.0089; under B2, 0.0001.
The same measure, in the same setting: the result for B17 reads 0.0002.
On the same count and under the same terms, the result for B3 reads 0.0001; that for B4, 0.019; that for B5, 0.0005.
For the molecule B18, the relative binding ratio (IC50 of standard peptide / IC50 of test peptide) (ratio to standard peptide) is 0.0057.
Regarding B6, the relative binding ratio (IC50 of standard peptide / IC50 of test peptide) is 0.047.
As for B7, the relative binding ratio (IC50 of standard peptide / IC50 of test peptide) was found to be 0.08.
Take B19: the relative binding ratio (IC50 of standard peptide / IC50 of test peptide) (ratio to standard peptide) is 0.27.
Take B8: the relative binding ratio (IC50 of standard peptide / IC50 of test peptide) was determined as 0.0025.
Same read-out and setting: the result for B20 reads 0.025.
Take B21: the relative binding ratio (IC50 of standard peptide / IC50 of test peptide) (ratio to standard peptide) was 0.0005.
With B9, the relative binding ratio (IC50 of standard peptide / IC50 of test peptide) was 0.0002.
On the same count and under the same terms, under B22 stands 0.0014.

A further experiment deals with HLA-A*1101 (human). The experiment is described as above.
Details: not given
Regarding B10, the binding affinity ratio (IC50 of standard peptide / IC50 of test peptide) (ratio relative to standard peptide) was 0.0002.
In the case of B11, the relative binding ratio (IC50 of standard peptide / IC50 of test peptide) (ratio to standard peptide) is 0.14.
The same measure, in the same setting: under B12 stands 0.0025.
B13: the relative binding ratio (IC50 of standard peptide / IC50 of test peptide) was determined as 0.12.
On the same count and under the same terms, the result for B14 reads 0.024.
Regarding B15, the binding affinity ratio (IC50 of standard peptide / IC50 of test peptide) (ratio relative to standard peptide) was determined as 0.0014.
As for B16, the relative binding ratio (IC50 of standard peptide / IC50 of test peptide) is 0.0005.
Same read-out and setting: under B1 stands 0.0021.
On the same count and under the same terms, under B2 stands 0.0001.
Still for that read-out and setting: under B17 stands 0.0005; under B3, 0.036.
In the case of B4, the relative binding ratio (IC50 of standard peptide / IC50 of test peptide) stood at 0.0012.
Still for that read-out and setting: the result for B5 reads 0.0051.
For B18, the relative binding ratio (IC50 of standard peptide / IC50 of test peptide) (ratio to standard peptide) is 0.37.
As to B6, the relative binding ratio (IC50 of standard peptide / IC50 of test peptide) amounted to 0.12.
Turning to B7, the relative binding ratio (IC50 of standard peptide / IC50 of test peptide) stood at 0.23.
For the molecule B19, the relative binding ratio (IC50 of standard peptide / IC50 of test peptide) (ratio to standard peptide) stood at 0.18.
Regarding B8, the relative binding ratio (IC50 of standard peptide / IC50 of test peptide) is 0.018.
On the same count and under the same terms, the result for B20 reads 0.0005.
As for B21, the relative binding ratio (IC50 of standard peptide / IC50 of test peptide) (ratio to standard peptide) stood at 0.0002.
On to B9, for which the relative binding ratio (IC50 of standard peptide / IC50 of test peptide) was determined as 0.0013.
Same read-out and setting: under B22 stands 0.0002.

In the next experiment the target is HLA-A*0301 (human). The experiment is described as follows: competition with 125I-labelled standard peptide for purified HLA-A*0301, gel filtration.
Details: not given
On to B13, for which the relative binding ratio (IC50 of standard peptide / IC50 of test peptide) was found to be 0.017.
Still for that read-out and setting: the result for B17 reads 0.0002.
Regarding B20, the relative binding ratio (IC50 of standard peptide / IC50 of test peptide) (ratio to standard peptide) was 0.025.

In the next experiment the target is HLA-A*1101 (human). In words: competition with 125I-labelled standard peptide for purified HLA-A*1101, gel filtration.
Details: not given
Turning to B23, the relative binding ratio (IC50 of standard peptide / IC50 of test peptide) was determined as 0.0001.
For B24, the binding affinity ratio (IC50 of the standard peptide / IC50 of the test peptide) was found to be 0.0015.
For B25, the binding affinity ratio (IC50 of standard peptide / IC50 of test peptide) (ratio to standard peptide) was found to be 0.0002.
Take B26: the relative binding ratio (IC50 of standard peptide / IC50 of test peptide) came to 0.0008.
Take B27: the relative binding ratio (IC50 of standard peptide / IC50 of test peptide) amounted to 0.0001.
B28: the binding affinity ratio (IC50 of standard peptide / IC50 of test peptide) came out at 0.0002.
Turning to B29, the binding affinity ratio (IC50 of standard peptide / IC50 of test peptide) amounted to 0.0002.
As for B30, the relative binding ratio (IC50 of standard peptide / IC50 of test peptide) turned out to be 0.0001.
On the same count and under the same terms, under B31 stands 0.0002.
As for B32, the binding affinity ratio (IC50 of standard peptide / IC50 of test peptide) (ratio to standard peptide) was 0.0031.
For B33, the binding affinity ratio (IC50 of the standard peptide / IC50 of the test peptide) came to 7.1.
Turning to B34, the relative binding ratio (IC50 of standard peptide / IC50 of test peptide) came out at 0.0005.
Same read-out and setting: the result for B35 reads 0.0057.
Consider B36, for which the binding affinity ratio (IC50 of the standard peptide / IC50 of the test peptide) is 0.051.
Turning to B37, the binding affinity ratio (IC50 of the standard peptide / IC50 of the test peptide) came out at 0.0002.
As for B38, the relative binding ratio (IC50 of standard peptide / IC50 of test peptide) came out at 0.0001.
On the same count and under the same terms, the result for B39 reads 0.0001.
B40: the binding affinity ratio (IC50 of the standard peptide / IC50 of the test peptide) was 0.0025.

Still in this experiment, the particulars now being: remark: other sources report otherwise.
Regarding B41, the relative binding ratio (IC50 of standard peptide / IC50 of test peptide) is 0.0002.
Turning to B42, the relative binding ratio (IC50 of standard peptide / IC50 of test peptide) came to 0.0065.
The same measure, in the same setting: under B43 stands 0.067.
